First the molecules themselves.
B1: peptide GLSSAYGGL (SEQ ID NO: 30) (peptide)
peptide: GLSSAYGGL
B2: peptide KLLEFDQLQL (SEQ ID NO: 160) (peptide)
peptide: KLLEFDQLQL
B3: peptide TLQEVVTGV (SEQ ID NO: 183) (peptide)
peptide: TLQEVVTGV
notes: also called TLQEWTGV
B4: peptide RLLDFPEAMVL (SEQ ID NO: 165) (peptide)
peptide: RLLDFPEAMVL
B5: peptide RLIPDTLYSV (SEQ ID NO: 3) (peptide)
peptide: RLIPDTLYSV
B6: peptide FLKNELDNV (SEQ ID NO: 161) (peptide)
peptide: FLKNELDNV
B7: peptide GLLEARGILGL (SEQ ID NO: 166) (peptide)
peptide: GLLEARGILGL
B8: peptide FLVDGPRVQL (SEQ ID NO: 188) (peptide)
peptide: FLVDGPRVQL
B9: peptide RTLDKVLEV (SEQ ID NO: 176) (peptide)
peptide: RTLDKVLEV
B10: peptide KLGDLMVLL (SEQ ID NO: 173) (peptide)
peptide: KLGDLMVLL
B11: peptide AMAEMVLQV (SEQ ID NO: 190) (peptide)
peptide: AMAEMVLQV
B12: peptide SVIDHIHLISV (SEQ ID NO: 167) (peptide)
peptide: SVIDHIHLISV
B13: peptide SLNKWIFTV (SEQ ID NO: 182) (peptide)
peptide: SLNKWIFTV
B14: peptide VLYTGWRV (SEQ ID NO: 185) (peptide)
peptide: VLYTGVVRV
B15: peptide TLLGGKEAQALGV (SEQ ID NO: 175) (peptide)
peptide: TLLGGKEAQALGV
B16: peptide VLIDHRWVL (SEQ ID NO: 21) (peptide)
peptide: VLIDHRWVL
B17: peptide GLIRFPLMTI (SEQ ID NO: 168) (peptide)
peptide: GLIRFPLMTI
B18: peptide SLLDENNVSSYL (SEQ ID NO: 184) (peptide)
peptide: SLLDENNVSSYL
B19: peptide ILLDDNMQIRL (SEQ ID NO: 174) (peptide)
peptide: ILLDDNMQIRL
B20: peptide SLADRLIGV (SEQ ID NO: 25) (peptide)
peptide: SLADRLIGV
B21: peptide LLADEDSSYL (SEQ ID NO: 27) (peptide)
peptide: LLADEDSSYL
B22: peptide ALAGGITMV (SEQ ID NO: 170) (peptide)
peptide: ALAGGITMV
B23: peptide RLQETEGMVAV (SEQ ID NO: 171) (peptide)
peptide: RLQETEGMVAV
B24: peptide … (SEQ ID NO: 159) (peptide)
peptide: VLVDDDGIKVV
B25: peptide KMLDEILLQL (SEQ ID NO: 164) (peptide)
peptide: KMLDEILLQL
B26: peptide QMLDVAIRV (SEQ ID NO: 29) (peptide)
peptide: QMLDVAIRV
B27: peptide ALLQGAIESV (SEQ ID NO: 177) (peptide)
peptide: ALLQGAIESV
B28: peptide GLIDEVMVL (SEQ ID NO: 22) (peptide)
peptide: GLIDEVMVL
notes: also called CYP2W1-001
B29: peptide YLFREPATI (SEQ ID NO: 178) (peptide)
peptide: YLFREPATI
B30: peptide AISEVIGKITA (SEQ ID NO: 189) (peptide)
peptide: AISEVIGKITA
B31: peptide QLFSEIHNL (SEQ ID NO: 191) (peptide)
peptide: QLFSEIHNL
B32: peptide VLVDQSWVL (SEQ ID NO: 16) (peptide)
peptide: VLVDQSWVL
B33: peptide ALAAARVEL (SEQ ID NO: 17) (peptide)
peptide: ALAAARVEL
B34: peptide FLDANGHFV (SEQ ID NO: 23) (peptide)
peptide: FLDANGHFV
B35: peptide ALTEIQEFI (SEQ ID NO: 28) (peptide)
peptide: ALTEIQEFI
B36: peptide NLFDLGGQYLRV (SEQ ID NO: 181) (peptide)
peptide: NLFDLGGQYLRV
B37: peptide YLAHFIEGL (SEQ ID NO: 169) (peptide)
peptide: YLAHFIEGL
B38: peptide GLHNVVYGI (SEQ ID NO: 187) (peptide)
peptide: GLHNVVYGI
notes: also called GLHNWYGI
B39: peptide YLKDGDVML (SEQ ID NO: 20) (peptide)
peptide: YLKDGDVML
B40: peptide GLASKENFSNVSL (SEQ ID NO: 26) (peptide)
peptide: GLASKENFSNVSL
B41: peptide KLMDYIDEL (SEQ ID NO: 162) (peptide)
peptide: KLMDYIDEL
B42: peptide LLLDTVTMQV (SEQ ID NO: 172) (peptide)
peptide: LLLDTVTMQV
B43: peptide RLLHEVQEL (SEQ ID NO: 163) (peptide)
peptide: RLLHEVQEL
B44: peptide VLDGVLMEL (SEQ ID NO: 24) (peptide)
peptide: VLDGVLMEL
B45: peptide ALLPRYFFL (SEQ ID NO: 2) (peptide)
peptide: ALLPRYFFL
B46: peptide RLYTKLLNEA (SEQ ID NO: 19) (peptide)
peptide: RLYTKLLNEA
B47: peptide FLSSLKGGLL (SEQ ID NO: 18) (peptide)
peptide: FLSSLKGGLL
B48: peptide KMSEKILLL (SEQ ID NO: 186) (peptide)
peptide: KMSEKILLL
B49: peptide RLLJPLSSA (SEQ ID NO: 179) (peptide)
peptide: RLL[pS]PLSSA
notes: Phosphopeptide

Square brackets hold non-standard residues; d marks the D form. Ends that are not written are not given here. pS = N[C@@H](COP(=O)(O)O)C(=O)O

The target of the assay is T1, HLA-A*02:01 (human).
T1 construct: MHC class I monomer made peptide-receptive by UV cleavage of a UV-sensitive ligand; also called peptide-receptive MHC molecules
Put plainly: UV-ligand exchange ELISA (anti-β2m), peptide exchange yield grade. The source says:
Candidate peptides for T cell based therapies according to the present invention were further tested for their MHC binding capacity (affinity). The individual peptide-MHC complexes were produced by UV-ligand exchange, where a UV-sensitive peptide is cleaved upon UV-irradiation, and exchanged with the peptide of interest as analyzed. Only peptide candidates that can effectively bind and stabilize the peptide-receptive MHC molecules prevent dissociation of the MHC complexes. To determine the yield of the exchange reaction, an ELISA was performed based on the detection of the light chain (β2m) of stabilized MHC complexes. The assay was performed as generally described in Rodenko et al. (Rodenko et al., 2006).
96 well MAXISorp plates (NUNC) were coated over night with 2ug/ml streptavidin in PBS at room temperature, washed 4× and blocked for1h at 37° C. in 2% BSA containing blocking buffer. Refolded HLA-A*02:01/MLA-001 monomers served as standards, covering the range of 15-500 ng/ml. Peptide-MHC monomers of the UV-exchange reaction were diluted 100 fold in blocking buffer. Samples were incubated for 1h at 37° C., washed four times, incubated with 2 ug/ml HRP conjugated anti-β2m for 1h at 37° C., washed again and detected with TMB solution that is stopped with […]. Absorption was measured at 450 nm. Candidate peptides that show a high exchange yield (preferably higher than 50%, most preferred higher than 75 %) are generally preferred for a generation and production of antibodies or fragments thereof, and/or T cell receptors or fragments thereof, as they show sufficient avidity to the MHC molecules and prevent dissociation of the MHC complexes.
Background: In an ELISA, binding on a coated surface is turned into a signal by an enzyme label.
Regarding B1, the peptide exchange yield lay within 10 to 20%. With B2 the figure was 50 to 75%; with B3, 50 to 75%; with B4, at least 75%. To B5 belongs at least 75%; to B6, 50 to 75%.

As to B7, the peptide exchange yield is 50 to 75%.

B8: the peptide exchange yield lay within 50 to 75%. To B9 belongs 20 to 50%; to B10, 50 to 75%.

B11 gave a peptide exchange yield of 50 to 75%.

B12 yielded a peptide exchange yield of 50 to 75%. To B13 belongs at least 75%.

Molecule B14 gave a peptide exchange yield of 50 to 75%.

As for B15, the peptide exchange yield fell in the range of 50 to 75%.

B16 displayed a peptide exchange yield of 50 to 75%. To B17 belongs 50 to 75%; to B18, 50 to 75%; to B19, at least 75%. B20 yielded a peptide exchange yield of at least 75%.

On to B21, for which the peptide exchange yield lay in the range of 20 to 50%. B22: the peptide exchange yield is 50 to 75%.

Turning to B23, the peptide exchange yield is 20 to 50%. With B24 the figure was 20 to 50%; with B25, at least 75%. B26: the peptide exchange yield was 50 to 75%.

The molecule B27 displayed a peptide exchange yield of 50 to 75%.

Molecule B28 had a peptide exchange yield of 50 to 75%. To B29 belongs 20 to 50%; to B30, 50 to 75%; to B31, at least 75%. The molecule B32 came in with a peptide exchange yield of 50 to 75%. With B33 the figure was 50 to 75%; with B34, 50 to 75%; with B35, at least 75%. In turn, B36 returned a peptide exchange yield of 50 to 75%. With B37 the figure was 50 to 75%; with B38, 50 to 75%. To B39 belongs 50 to 75%; to B40, 20 to 50%; to B41, 50 to 75%. Molecule B42 showed a peptide exchange yield of 50 to 75%. In the case of B43, the peptide exchange yield lay in the range of 50 to 75%. For B44, the peptide exchange yield is 50 to 75%. Molecule B45 registered a peptide exchange yield of 20 to 50%. On to B46, for which the peptide exchange yield lay in the range of 50 to 75%. Take B47: the peptide exchange yield fell in the range of 50 to 75%. To B48 belongs 50 to 75%. With B49 the figure was 50 to 75%.
